Test results reported in ChEMBL document CHEMBL1142160, “Overexpression and initial characterization of the chromosomal aminoglycoside 3'-O-phosphotransferase APH(3')-IIb from Pseudomonas aeruginosa” (2007).

What was measured:
[1] = substrate: NC[C@@H]1O[C@H](O[C@H]2[C@@H](O)[C@H](O[C@@H]3[C@@H](O)[C@H](N)C[C@H](N)[C@H]3O[C@H]3O[C@H](CN)[C@@H](O)[C@H](O)[C@H]3N)O[C@@H]2CO)[C@H](N)[C@@H](O)[C@@H]1O; assay: (§1) Activity against Pseudomonas aeruginosa APH(3')-2b expressed in Escherichia coli BL21(DE3) assessed as phosphorylation
[2] = substrate: NC[C@H]1O[C@H](O[C@H]2[C@H](O[C@@H]3O[C@H](CO)[C@@H](O)[C@H]3O)[C@@H](O)[C@H](N)C[C@@H]2N)[C@H](N)[C@@H](O)[C@@H]1O; assay: as §1
[3] = substrate: NC[C@@H]1O[C@@H](O[C@H]2[C@H](O)[C@@H](O[C@H]3O[C@H](CO)[C@@H](O)[C@H](N)[C@H]3O)[C@H](N)C[C@@H]2N)[C@@H](O)[C@H](O)[C@H]1O; assay: as §1
[4] = substrate: NCC[C@H](O)C(=O)N[C@@H]1C[C@H](N)[C@@H](O[C@H]2O[C@H](CN)[C@@H](O)[C@H](O)[C@H]2O)[C@H](O)[C@H]1O[C@H]1O[C@H](CO)[C@@H](O)[C@H](N)[C@H]1O; assay: as §1
[5] = substrate: NC[C@H]1O[C@H](O[C@H]2[C@H](O)[C@@H](O)[C@H](N)C[C@@H]2N)[C@H](N)[C@@H](O)[C@@H]1O; assay: as §1
[6] = substrate: NC[C@@H]1O[C@H](O[C@H]2[C@@H](O)[C@H](O[C@@H]3[C@@H](O)[C@H](N)C[C@H](N)[C@H]3O[C@H]3O[C@H](CN)[C@@H](O)[C@H](O)[C@H]3N)O[C@@H]2CO)[C@H](N)[C@@H](O)[C@@H]1O; assay: (§2) Ratio of kcat to km for PH(3')-2b activity; conditions: Pseudomonas aeruginosa
[7] = substrate: NC[C@H]1O[C@H](O[C@H]2[C@H](O[C@@H]3O[C@H](CO)[C@@H](O)[C@H]3O)[C@@H](O)[C@H](N)C[C@@H]2N)[C@H](N)[C@@H](O)[C@@H]1O; assay: as §2; conditions: Pseudomonas aeruginosa
[8] = substrate: NC[C@@H]1O[C@@H](O[C@H]2[C@H](O)[C@@H](O[C@H]3O[C@H](CO)[C@@H](O)[C@H](N)[C@H]3O)[C@H](N)C[C@@H]2N)[C@@H](O)[C@H](O)[C@H]1O; assay: as §2; conditions: Pseudomonas aeruginosa
[9] = substrate: NCC[C@H](O)C(=O)N[C@@H]1C[C@H](N)[C@@H](O[C@H]2O[C@H](CN)[C@@H](O)[C@H](O)[C@H]2O)[C@H](O)[C@H]1O[C@H]1O[C@H](CO)[C@@H](O)[C@H](N)[C@H]1O; assay: as §2; conditions: Pseudomonas aeruginosa
[10] = substrate: NC[C@H]1O[C@H](O[C@H]2[C@H](O)[C@@H](O)[C@H](N)C[C@@H]2N)[C@H](N)[C@@H](O)[C@@H]1O; assay: as §2; conditions: Pseudomonas aeruginosa

B1: Aminoglycoside 3'-phosphotransferase type IIb (Pseudomonas aeruginosa (strain ATCC 15692 / PAO1 / 1C / PRS 101 / LMG12228)), Q9HWR2 (protein)
chain: MHDAATSMPPQAPSTWADYLAGYRWRGQGEGCSAATVHRLEAARRPTLFVKQEVLSAHAELPAEIARLRWLHGAGIDCPQVLNETQSDGRQWLLMSAVPGDTLSALAQRGELEPERLVRLVAAALRRLHDLDPAACPFDHRLERRLDTVRQRVEAGLVDEADFDDDHRGRSATELYRLLLDRRPAVEDLVVAHGDACLPNLLAEGRRFSGFIDCGRLGVADRHQDLALAARDIEAELGAAWAEAFLVEYGGDIDGERLAYFRLLDEFF
Q: B1 was tested. Which Km [1] did it give?
A: Its Km is 17.5 µM.

Q: What about the Km [2] of the same protein?
A: The Km was 10 µM.

Q: What about the Km [3] of the same protein?
A: Its Km is 3.1 µM.

Q: What about the Km [4] of the same protein?
A: Its Km is 440 µM.

Q: What about the Km [5] of the same protein?
A: Its Km is 10.3 µM.

Q: And the kcat/Km [6]?
A: The kcat/Km was 120000 M⁻¹ s⁻¹.

Q: What about the kcat/Km [7] of the same protein?
A: The kcat/Km was 190000 M⁻¹ s⁻¹.

Q: And the kcat/Km [8]?
A: Its kcat/Km is 360000 M⁻¹ s⁻¹.

Q: What about the kcat/Km [9] of the same protein?
A: The kcat/Km was 400000 M⁻¹ s⁻¹.

Q: And the kcat/Km [10]?
A: The kcat/Km was 170000 M⁻¹ s⁻¹.
